# T1: ICAM-2 (recombinant, Sino Biological 10332-H03H) (UniProt P13598 25-223)
# T1 construct: ICAM-2, bought recombinant protein; also called intercellular adhesion molecule 2; source: bought: Sino Biological
# T1 sequence (looked up): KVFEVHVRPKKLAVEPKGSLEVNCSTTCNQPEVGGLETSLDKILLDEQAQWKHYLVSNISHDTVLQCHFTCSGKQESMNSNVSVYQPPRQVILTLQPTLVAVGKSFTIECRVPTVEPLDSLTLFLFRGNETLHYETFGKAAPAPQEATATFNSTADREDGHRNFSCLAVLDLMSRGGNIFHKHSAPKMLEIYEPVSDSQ
# Experiments:
# Settings in all cases: both partners purified
# C3b = molecular target: T2, C3b (UniProt P01024 23-667; P01024 749-1663); test: SPR; C3b deposited on a CM5 chip (amine-coupled seed, then convertase-mediated deposition to about 5000 RU), iC3b and C3dg made from it on the chip; αI domains injected as dilution series, 120 s; Biacore T200, 25 °C; HBST (10 mM HEPES, 150 mM NaCl, 0.005% Tween-20, pH 7.4) with 1 mM MgCl2; Langmuir 1:1 fit, KD calculated
# T2 construct: A seed of about 100 RU C3b was amine-coupled; further C3b was deposited via its thioester moiety to about 5000 RU; also called C3b fragment; C3-derived opsonin; source: bought: Complement Technology (C3b, C3); deposited on the SPR chip from C3 by the FB/FD convertase
# C3dg = molecular target: T3, C3dg (UniProt P01024 955-1303); test: as above
# T3 construct: Held on the chip through the thioester-mediated deposit of its parent C3b; also called C3dg fragment; source: made on the SPR chip by co-injecting CR1 and factor I
# [1] = molecular target: T1, ICAM-2 (recombinant, Sino Biological …); test: SPR; ICAM-1, ICAM-2, ICAM-3 amine-coupled to a CM5 chip; αI domains injected; 25 °C; HBST with 1 mM MgCl2
# [2] = molecular target: T4, ICAM-1 (recombinant, Sino Biological 10346-H03H) (UniProt P05362 28-480); test: as above
# T4 construct: ICAM-1, bought recombinant protein; also called intercellular adhesion molecule 1; source: bought: Sino Biological
# T4 sequence (P05362 28-480): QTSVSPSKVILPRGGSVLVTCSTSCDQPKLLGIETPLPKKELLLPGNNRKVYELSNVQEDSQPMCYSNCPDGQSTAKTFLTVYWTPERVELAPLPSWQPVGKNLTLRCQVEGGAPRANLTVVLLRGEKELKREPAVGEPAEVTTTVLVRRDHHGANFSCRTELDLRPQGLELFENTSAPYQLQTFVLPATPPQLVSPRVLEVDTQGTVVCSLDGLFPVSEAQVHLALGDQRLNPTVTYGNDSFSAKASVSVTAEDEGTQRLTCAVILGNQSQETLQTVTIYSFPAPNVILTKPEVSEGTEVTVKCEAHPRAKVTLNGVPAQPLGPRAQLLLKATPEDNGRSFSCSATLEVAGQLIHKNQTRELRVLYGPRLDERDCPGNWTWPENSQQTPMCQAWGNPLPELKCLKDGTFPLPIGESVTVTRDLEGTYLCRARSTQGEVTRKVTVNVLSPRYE
Binder,Kd (C3b) [µM],Kd (C3dg) [µM],binding result [1],binding result [2]
"CR4 αXI domain, wild type (WT) (domain or fragment, UniProt P20702 148-336, looked up, integrin alpha-X (CD11c) αI domain, Q148-I336; also called αXI WT; WT αXI) QEQDIVFLIDGSGSISSRNFATMMNFVRAVISQFQRPSTQFSLMQFSNKFQTHFTFEEFRRSSNPLSLLASVHQLQGFTYTATAIQNVVHRLFHASYGARRDAAKILIVITDGKKEGDSLDYKDVIPMADAAGIIRYAIGVGLAFQNRNSWKELNDIASKPSQEHIFKVEDFDALKDIQNQLKEKIFAI",55.5,30.4,–,–
"CR4 αXI domain, high-affinity (HA) variant p.I333G (domain or fragment, UniProt P20702 148-336, looked up, integrin alpha-X (CD11c) αI domain, Q148-I336; Addgene numbers tied to αLI and αXI by the order of the sentence; also called αXI HA; HA αXI) QEQDIVFLIDGSGSISSRNFATMMNFVRAVISQFQRPSTQFSLMQFSNKFQTHFTFEEFRRSSNPLSLLASVHQLQGFTYTATAIQNVVHRLFHASYGARRDAAKILIVITDGKKEGDSLDYKDVIPMADAAGIIRYAIGVGLAFQNRNSWKELNDIASKPSQEHIFKVEDFDALKDIQNQLKEKGFAI",2.2,3.8,–,–

# Other lines, results leading:
Kd (C3b) [µM],Kd (C3dg) [µM],binding result [1],binding result [2],Binder
11.6,1.4,binds,–,"CR3 αMI domain, high-affinity (HA) variant p.I332G (domain or fragment, integrin alpha-M (CD11b) αI domain, Q146-A334; beads captured by the His-tag; also called αMI HA; HA αMI) QEDSDIAFLIDGSGSIIPHDFRRMKEFVSTVMEQLKKSKTLFSLMQYSEEFRIHFTFKEFQNNPNPRSLVKPITQLLGRTHTATGIRKVVRELFNITNGARKNAFKILVVITDGEKFGDPLGYEDVIPEADREGVIRYVIGVGDAFRSEKSRQELNTIASKPPRDHVFQVNNFEALKTIQNQLREKGFA"
–,–,–,binds,"CD11d αDI domain, high-affinity (HA) variant p.I332G (domain or fragment, UniProt Q13349 145-334, looked up, integrin alpha-D (CD11d) αI domain, P145-A334; plasmid bought from ATG:Biosynthetics; also called αDI HA; HA αDI) PHQEMDIVFLIDGSGSIDQNDFNQMKGFVQAVMGQFEGTDTLFALMQYSNLLKIHFTFTQFRTSPSQQSLVDPIVQLKGLTFTATGILTVVTQLFHHKNGARKSAKKILIVITDGQKYKDPLEYSDVIPQAEKAGIIRYAIGVGHAFQGPTARQELNTISSAPPQDHVFKVDNFAALGSIQKQLQEKGYA"

# From paper PMC11853025, “Determining Ligand Binding and Specificity Within the β2-Integrin Family with a Novel Assay Platform” (Biomolecules, 2025)
